Experiment [1] has as its target HA of A/California/04/2009 (CA04; H1N1pdm09) on virus particles (Influenza A virus A/California/04/2009 …, UniProt C3W5S1, strain). Put plainly: BLI. For orientation: Biolayer interferometry detects binding as a change in optical thickness at a sensor tip.
For experiment [2], the target named is Recombinant soluble HA of subtype H1 (A/California/07/2009, H1N1pdm09) (Influenza A virus A/California/07/2009 …, UniProt C3W5X2, strain). Put plainly: BLI.
Experiment [3] has as its target Recombinant soluble HA of subtype H3 (A/Perth/16/2009, H3N2) (Influenza A virus A/Perth/16/2009 (H3N2), UniProt C6KNH7, strain). Put plainly: BLI.
In experiment [4] the target is Recombinant soluble HA of subtype H7 (A/Netherland/219/2003, H7N7) (Influenza A virus …, UniProt Q6VMK1). Put plainly: BLI.
Experiment [5] deals with HA of A/Singapore/1/57 (H2), expressed in cells from pCAGGS (Influenza A virus A/Singapore/1/1957 …, UniProt Q67333, strain). Put plainly: immunostaining of cells or tissue.
The target in experiment [6] is HA of A/duck/Czechoslovakia/56 (H4), expressed in cells from pCAGGS (Influenza A virus …, UniProt P19696, strain). Put plainly: immunostaining of cells or tissue.
Experiment [7] deals with HA of A/turkey/Ontario/6118/68 (H8), expressed in cells from pCAGGS (Influenza A virus …, UniProt P03456, strain). Put plainly: immunostaining of cells or tissue.
The target in experiment [8] is HA of A/turkey/Wisconsin/66 (H9), expressed in cells from pCAGGS (Influenza A virus …, UniProt P03457, strain). Briefly: immunostaining of cells or tissue.
The target of experiment [9] is HA of A/chicken/Germany/N/49 (H10), expressed in cells from pCAGGS (Influenza A virus …, UniProt P12581, strain). Put plainly: immunostaining of cells or tissue.
Experiment [10] concerns the target HA of A/duck/Memphis/546/74 (H11), expressed in cells from pCAGGS (Influenza A virus …, UniProt Q0A426, strain). Briefly: immunostaining of cells or tissue.
The target in experiment [11] is HA of A/gull/Maryland/704/77 (H13), expressed in cells from pCAGGS (Influenza A virus …, UniProt P13103, strain). Briefly: immunostaining of cells or tissue.
Experiment [12] deals with HA of A/mallard/Astrakhan/263/82 (H14), expressed in cells from pCAGGS (Influenza A virus …, UniProt P26136, strain). Put plainly: immunostaining of cells or tissue.
In experiment [13] the target is HA of A/duck/Australia/341/83 (H15), expressed in cells from pCAGGS (Influenza A virus …, UniProt Q82565, strain). Briefly: immunostaining of cells or tissue.

B1: S9-1-10/5-1, recombinant monoclonal human IgG (IgG1, kappa) (antibody, V domains shown)
VH: QLHLQESGPGLLKPSATLSLTCTVSGGSMNNYYWSWVRQAPGKGLEWIGYIFHSGSTNYSPPLKSRVTISIDTATNQFFLRLNSVTAADTAVYYCARMSRGVFSSSRFFGLDVWGRGTAVAVSS
VL: EIVLTQSPATLSVSPGERATLSCRASQSVASNLAWYQQKPGQAPRLLISAASTRATDIPARFSGSGSGTEFTLTISSLQSEDFAVYYCQQYNNWLSFTFGPGTKVDMK
For orientation: Kd means the free concentration of one partner at which half of the binding sites on the other are occupied at equilibrium, for simple one-to-one binding. As a reminder, the koff is a measure of how fast the partners let go of each other. For orientation: kon means a measure of how fast the partners come together. For B1, the binding result in experiment [1], in experiment [5], in experiment [6], in [7], in experiment [8] and in experiment [9] was “binds” each time. In addition, the binding result in experiment [10], in [11], in [12] and in [13] was “binds” each time. For the same molecule, the Kd in [2] was 0.0085 nM; in [3] it was 34 nM; in experiment [4], 0.9 nM. Besides, the koff in experiment [2] was 6.7e-06 s⁻¹; in experiment [3], 0.002 s⁻¹; in experiment [4], 0.00037 s⁻¹. For the same molecule, the kon in experiment [2] worked out at 790000 M⁻¹ s⁻¹; in [3], 59000 M⁻¹ s⁻¹; in [4] it was 410000 M⁻¹ s⁻¹.

Source of the values: PMC5360590 (EBioMedicine, 2017).
